Assay results reported in US20210355235A1, “Compositions and Methods For Treating Cancer with Anti-Renalase antibodies and Anti-PD1 antibodies” (YALE UNIVERSITY, priority 2017, published 2021).
Entries after “also recorded” stand apart in the source; their conditions may differ. Where two headings read alike, the source gives them in different places.

Experiments:
A375.S2 melanoma cells = assay: cell viability, WST-1 assay; type: cell-based, human; conditions: WST-1, 72 hrs
Method: FIG. 19, comprising FIGS. 19A through 19D, is a series of images and charts showing that inhibition of RNLS signaling is cytotoxic to melanoma cells in vitro. […] FIG. 19B comprises two charts depicting relative cell viability: Left panel: Cells were treated with indicated antibodies for 72 hrs and cell viability was determined using WST-1; m28-RNLS (also known as 1D-28-4), m37-RNLS (also known as 1D-37-10): monoclonal antibodies raised against RNLS peptide RP220; Right panel: A375.S2 cells treated with increasing doses of m28-RNLS for 72 hrs and cell viability determined with a WST-1 assay; n=6, * indicates p<0.05 and ** indicates p<0.005. FIG. 19C comprises representative photos of A375.S2, SkMel28, and SkMel5 after 72 hrs incubation with either control rabbit IgG or m28-RNLS. FIG. 19D is a chart depicting relative cell viability, comprising amino acid (AA) sequence of RNLS peptide antagonist (RP220A).
(§1) Total cell number and percentage of live cells were assessed by trypan blue exclusion, and cells were counted using a BioRad TC10 automated cell counter. For additional studies, cell viability was determined using WST-1 reagent (Roche Diagnostics, Indianapolis, Ind., USA) according to the manufacturers' instruction. Absorbances were read using a microplate reader (Power Waves XS, BioTek Instruments, Winooski, Vt., USA).

melanoma cell lines = assay: melanoma cells in culture, viability / growth; type: cell-based, human
Method: as §1

BxPC3 xenografted tumors = assay: BxPC3 pancreatic xenograft in athymic nude mice; type: in vivo, mouse
Method: Immunohistochemistry was performed as described previously (Guo et al., 2012 Cancer Science. 103(8):1474-80). Briefly tumor tissues were formalin-fixed, paraffin-embedded and cut into 5-m sections on glass slides. The slides were de-paraffinized and hydrated, followed by antigen retrieval in a pressure cooker containing 10 mM sodium citrate, pH6 buffer. The sections were blocked in 3% hydrogen peroxide for 30 min and 2.5% normal horse serum in PBS/0.1% Tween20 for 1 h followed by incubation with primary antibody and isotype control IgG overnight at 4° C. The following antibodies were used in this study: m28-RNLS at 500 ng/ml; goat polyclonal anti-RNLS at 250 ng/ml (Abcam, AB31291); rabbit monoclonal anti Ki67 (Vector Lab, VP-RM04, 1:100); rabbit monoclonal anti p21 and phspho-Tyr^705-Stat3 (Cell Signaling Technologies, #2947, 1:100 and #9145, 1:400, respectively). ImmPRESS peroxidase-anti-rabbit IgG (Vector Laboratories, Burlingame, Calif., USA) was used to detect primary antibodies. The color was developed using a Vector DAB substrate kit and counterstained with hematoxylin (Vector Laboratories). Slides were observed and photographed using an Olympus BX41 microscope and camera (Olympus America Inc, Center Valley, Pa., USA).
Female athymic, 18-20 g nude mice (nu/nu) were obtained from Charles River (Willimantic, Conn.) and housed in microisolator cages, with autoclaved bedding in a specific pathogen-free facility, with a 12-h light/dark cycle.
Xenograft tumors were established by subcutaneous injection of BxPC3 cells (2×10^6 in 100 μl of PBS, pH 7.6). When the tumors reached a volume of 50-100 mm^3, the mice were divided a control group (n=14 treated with rabbit IgG, 40 μg by intraperitoneal injection (IP)), and an experimental group (n=14) that received m28-RNLS (40 μg IP, every 3 days). Tumor size was measured with digital calipers and volume was calculated according to the formula (length×width^2)×π/2. In another group of animals (n=6 each) sh-RNLS or sh-Control Panc1 cells (2×10^6 in 100 μl of PBS, pH 7.6) were injected subcutaneously. These animals received no further treatments, and tumor size and volume were measured for up to 30 days.
At the end of the study, the mice were sacrificed, the tumors were excised and immediately snap-frozen in liquid nitrogen and stored at −80° C. Apoptosis was examined using the TUNEL assay (Roche in situ Apoptosis Detection System), according to the manufacturer's instructions. Sections were examined by light microscopy and the apoptosis index was determined by counting ≥1000 cells in 5 randomly selected high-power fields (×200 magnification).

Panc1 cells [1] = assay: FACS analysis of apoptosis and cell cycle; type: cell-based, human; conditions: 30 μg/ml
Method: For cell cycle analysis, cultured cells were dissociated using 10 mM EDTA, fixed with ice-cold 70% ethanol, digested with RNAse A, and stained with propidium iodide. Propidium staining was detected using a BD FACSCalibur flow cytometer (BD Biosciences, San Jose, Calif., USA), and analyzed using CellQuest software.
Apoptosis was detected and quantified as previously done (Guo et al., 2012 Cancer Science. 103(8):1474-80). In brief, cells were stained with FITC-labeled Annexin-V and propidium iodide according to the manufacturer's instructions (Bender MedSystems, Burlingame, Calif., USA). At least 20,000 events were collected on a BD FACSCalibur flow cytometer (BD Biosciences, San Jose, Calif., USA) and analyzed using CellQuest software.

Panc1 cells [2] = assay: western blot of p38 and STAT3 phosphorylation; type: cell-based, human
Description: FIG. 27, comprising FIGS. 27A through 27E, is a series of images and charts showing the interaction between RNLS and STAT3, and the mechanistic model of inhibition by m28-RNLS. FIG. 27A is an image showing activation of STAT3 by RNLS in Panc1 cells; Panc1 cells in culture treated with either BSA or RNLS, and STAT3 phosphorylation assessed by western blot; p-Ser^727-STAT3: phosphorylation at serine 727, p-Y^705-STAT3: phosphorylation at tyrosine 705; representative study. FIG. 27B is a chart depicting the quantification of STAT3 phosphorylation with RNLS; signals normalized to total STAT3; n=3, *=P<0.05. […] FIG. 27D is a chart showing the quantification of STAT3 phosphorylation with m28-RNLS; signals normalized to GAPDH loading control; n=3, *=P<0.05. FIG. 27E depicts the proposed mechanistic model for antitumor activity of m28-RNLS.

B1: m28-RNLS: rabbit anti-renalase monoclonal raised against RNLS peptide RP-220; heavy chain SEQ ID NO:9, light chain SEQ ID NO:10 (antibody)
heavy: METGLRWLLLVAVLKGVQCQSVEESGGRLVTPGTPLTLTCTVSGFSLSSFAVGWVRQAPGKGLEYIGIISSVGITRYASWAAGRFTISKTSTTVDLKITSPTTEDTATYFCARYGYSGDVNRLDLWGQGTLVTVSSGQPKAPSVFPLAPCCGDTPSSTVTLGCLVKGYLPEPVTVTWNSGTLTNGVRTFPSVRQSSGLYSLSSVVSVTSSSQPVTCNVAHPATNTKVDKTVAPSTCSKPTCPPPELLGGPSVFIFPPKPKDTLMISRTPEVTCVVVDVSQDDPEVQFTWYINNEQVRTARPPLREQQFNSTIRVVSTLPIAHQDWLRGKEFKCKVHNKALPAPIEKTISKARGQPLEPKVYTMGPPREELSSRSVSLTCMINGFYPSDISVEWEKNGKAEDNYKTTPAVLDSDGSYFLYSKLSVPTSEWQRGDVFTCSVMHEALHNHYTQKSISRSPGK
light: MDTRAPTQLLGLLLLWLPGATFAQVLTQTASPVSAAVGGTVTINCQASQSVYDNNNLAWYQQKPGQPPKQLIYGASTLASGVSSRFKGSGSGTQFTLTISGVQCDDAATYYCLGEFSCSSADCFAFGGGTEVVVKGDPVAPTVLIFPPSADLVATGTVTIVCVANKYFPDVTVTWEVDGTTQTTGIENSKTPQNSADCTYNLSSTLTLTSTQYNSHKEYTCKVTQGTTSVVQSFNRGDC
modifications: 1D-28-4 full length heavy chain amino acid; 1D-28-4 full length light chain amino acid
B1 was tested, and the cell viability (A375.S2 melanoma cells) was “increasing levels of cytotoxicity in correlation with increasing treatment concentrations”, the “melanoma cell viability / growth in culture” value (melanoma cell lines) was “decreased the viability of all (total of 5) melanoma cell lines tested” and the “melanoma cell viability / growth in culture” value (melanoma cell lines; listed as 1D-28-4) was “inhibits melanoma cells in culture”. The “decrease in Ki67 expression vs IgG” value (BxPC3 xenografted tumors; mouse, in vivo) was 2.5 fold, the “increase in apoptosis (TUNEL staining) vs IgG” value (BxPC3 xenografted tumors; mouse, in vivo) was about 2 fold and the “increase in p21 expression vs IgG” value (BxPC3 xenografted tumors; mouse, in vivo) was about 4 fold. The p21 positive cells (BxPC3 xenografted tumors; n=14) was 178.1 ± 11.4 positive cells/high power field, the “TUNEL positive cells (apoptosis)” value (BxPC3 xenografted tumors; n=14, IgG 14.8±2.3) was 28.4±3.3 positive cells/high power field and the Ki67 positive cells (BxPC3 xenografted tumors; n=14, IgG 340.2±11.9) was 137.1±14.9 positive cells/high power field. The tumor volume (BxPC3 xenografted tumors; vs rabbit IgG, up to 3 weeks, 40 μg IP every 3 days) was “inhibited PDAC growth; also recorded: significant decrease in tumor volume”, the “cell cycle (FACS)” value (Panc1 cells [1]) was “pre-G2 cell cycle arrest” and the “apoptosis (FACS)” value (Panc1 cells [1]; 4 days) was “caused apoptosis”. The “p38 MAPK phosphorylation” value (Panc1 cells [2]; beginning at day 1 post treatment) was “sustained phosphorylation” and the “STAT3 phosphorylation (p-Y705-STAT3) after antibody” value (Panc1 cells [2]; up to 4 days) was “long-lasting and sustained decrease; also recorded: inhibits STAT3 phosphorylation”.
